These results are taken from patent publication US20230407373A1 (priority 2020, published 2023).

Read-outs that look alike come from different tables or passages of the source.

Holding throughout (type): binding
Assay [1] concerns SARS-CoV-2 gRNA and sgRNAs. The following applies: for background (unweighted spectral count in control): no-probe control pull-down, used as background for Probe II; for target (unweighted spectral count in RNP capture): Probe II capture, LC-MS/MS LFQ.
The subject of the next assay is SARS-CoV-2 gRNA. The following applies: for target (unweighted spectral count of the protein in the RNP capture): LC-MS/MS, Probe I sample (first 199 lines of Table 2).
A further assay concerns HCoV-OC43 gRNA and sgRNA. Conditions: for target (unweighted spectral count, OC43 Probe II capture) / target (unweighted spectral count): tested against no-probe control; for target (unweighted spectral count, OC43 Probe II capture): FDR<10%; for target (unweighted spectral count): OC43 Probe II, infected cells; for target (unweighted spectral count, OC43 Probe II) / background (unweighted spectral count, no-probe control): type n_48_v, 48 hpi; for target (unweighted spectral count, OC43 Probe II): OC43 Probe II capture on infected cells; for background (unweighted spectral count, no-probe control): no-probe control on infected cells.

B1: MYEF2 (protein, UniProt Q9P2K5 1-600, looked up)
Myelin expression factor 2: MADANKAEVPGATGGDSPHLQPAEPPGEPRREPHPAEAEKQQPQHSSSSNGVKMENDESAKEEKSDLKEKSTGSKKANRFHPYSKDKNSGAGEKKGPNRNRVFISNIPYDMKWQAIKDLMREKVGEVTYVELFKDAEGKSRGCGVVEFKDEEFVKKALETMNKYDLSGRPLNIKEDPDGENARRALQRTGGSFPGGHVPDMGSGLMNLPPSILNNPNIPPEVISNLQAGRLGSTIFVANLDFKVGWKKLKEVFSIAGTVKRADIKEDKDGKSRGMGTVTFEQAIEAVQAISMFNGQFLFDRPMHVKMDDKSVPHEEYRSHDGKTPQLPRGLGGIGMGLGPGGQPISASQLNIGGVMGNLGPGGMGMDGPGFGGMNRIGGGIGFGGLEAMNSMGGFGGVGRMGELYRGAMTSSMERDFGRGDIGINQGFGDSFGRLGSAMIGGFAGRIGSSNMGPVGSGISGGMGSMNSVTGGMGMGLDRMSSSFDRMGPGIGAILERSIDMDRGFLSGPMGSGMRERIGSKGNQIFVRNLPFDLTWQKLKEKFSQCGHVMFAEIKMENGKSKGCGTVRFDSPESAEKACRIMNGIKISGREIDVRLDRNA
B1: the “background (unweighted spectral count in control)” value in assay [1] is reported as 1. The “target (unweighted spectral count of the protein in the RNP capture)” value in the assay on SARS-CoV-2 gRNA ([…]) is 19.

B2: TRA2A (protein, UniProt Q13595 2-282, looked up)
Transformer-2 protein homolog …: SDVEENNFEGRESRSQSKSPTGTPARVKSESRSGSRSPSRVSKHSESHSRSRSKSRSRSRRHSHRRYTRSRSHSHSHRRRSRSRSYTPEYRRRRSRSHSPMSNRRRHTGSRANPDPNTCLGVFGLSLYTTERDLREVFSRYGPLSGVNVVYDQRTGRSRGFAFVYFERIDDSKEAMERANGMELDGRRIRVDYSITKRAHTPTPGIYMGRPTHSGGGGGGGGGGGGGGGGRRRDSYYDRGYDRGYDRYEDYDYRYRRRSPSPYYSRYRSRSRSRSYSPRRY
For the molecule B2, in assay [1] ([…]), the “target (unweighted spectral count in RNP capture)” value was found to be 7. Also, in assay [1], the “background (unweighted spectral count in control)” value is listed as 1. In addition, the “target (unweighted spectral count of the protein in the RNP capture)” value in the assay with SARS-CoV-2 gRNA ([…]) was determined as 6.

B3: PGK2 (protein, UniProt P07205 2-417, looked up)
Phosphoglycerate kinase 2: SLSKKLTLDKLDVRGKRVIMRVDFNVPMKKNQITNNQRIKASIPSIKYCLDNGAKAVVLMSHLGRPDGVPMPDKYSLAPVAVELKSLLGKDVLFLKDCVGAEVEKACANPAPGSVILLENLRFHVEEEGKGQDPSGKKIKAEPDKIEAFRASLSKLGDVYVNDAFGTAHRAHSSMVGVNLPHKASGFLMKKELDYFAKALENPVRPFLAILGGAKVADKIQLIKNMLDKVNEMIIGGGMAYTFLKVLNNMEIGASLFDEEGAKIVKDIMAKAQKNGVRITFPVDFVTGDKFDENAQVGKATVASGISPGWMGLDCGPESNKNHAQVVAQARLIVWNGPLGVFEWDAFAKGTKALMDEIVKATSKGCITVIGGGDTATCCAKWNTEDKVSHVSTGGGASLELLEGKILPGVEALSNM
Consider B3, for which the “target (unweighted spectral count of the protein in the RNP capture experiment)” value in assay [1] ([…], LC-MS/MS label-free quantification, probe pool not given) was determined as 5. Also, the “back-ground (unweighted spectral count of the protein in the control experiment)” value in assay [1] (protein background of the control (e.g. no-probe) experiment, […]) worked out at 1. In the assay with SARS-CoV-2 gRNA (Probe I capture, […], LC-MS/MS LFQ), the “target (unweighted spectral count in RNP capture)” value came to 5. Further, the “background (unweighted spectral count in control)” value with SARS-CoV-2 gRNA (no-probe control pull-down, used as background for Probe I) is 1.

B4: ATXN2L: host protein, UniProt Q8WWM7 (protein, UniProt Q8WWM7 1-1075, looked up)
Ataxin-2-like protein: MLKPQPLQQPSQPQQPPPTQQAVARRPPGGTSPPNGGLPGPLATSAAPPGPPAAASPCLGPVAAAGSGLRRGAEGILAPQPPPPQQHQERPGAAAIGSARGQSTGKGPPQSPVFEGVYNNSRMLHFLTAVVGSTCDVKVKNGTTYEGIFKTLSSKFELAVDAVHRKASEPAGGPRREDIVDTMVFKPSDVMLVHFRNVDFNYATKDKFTDSAIAMNSKVNGEHKEKVLQRWEGGDSNSDDYDLESDMSNGWDPNEMFKFNEENYGVKTTYDSSLSSYTVPLEKDNSEEFRQRELRAAQLAREIESSPQYRLRIAMENDDGRTEEEKHSAVQRQGSGRESPSLASREGKYIPLPQRVREGPRGGVRCSSSRGGRPGLSSLPPRGPHHLDNSSPGPGSEARGINGGPSRMSPKAQRPLRGAKTLSSPSNRPSGETSVPPPPAVGRMYPPRSPKSAAPAPISASCPEPPIGSAVPTSSASIPVTSSVSDPGVGSISPASPKISLAPTDVKELSTKEPGRTLEPQELARIAGKVPGLQNEQKRFQLEELRKFGAQFKLQPSSSPENSLDPFPPRILKEEPKGKEKEVDGLLTSEPMGSPVSSKTESVSDKEDKPPLAPSGGTEGPEQPPPPCPSQTGSPPVGLIKGEDKDEGPVAEQVKKSTLNPNAKEFNPTKPLLSVNKSTSTPTSPGPRTHSTPSIPVLTAGQSGLYSPQYISYIPQIHMGPAVQAPQMYPYPVSNSVPGQQGKYRGAKGSLPPQRSDQHQPASAPPMMQAAAAAGPPLVAATPYSSYIPYNPQQFPGQPAMMQPMAHYPSQPVFAPMLQSNPRMLTSGSHPQAIVSSSTPQYPSAEQPTPQALYATVHQSYPHHATQLHAHQPQPATTPTGSQPQSQHAAPSPVQHQAGQAPHLGSGQPQQNLYHPGALTGTPPSLPPGPSAQSPQSSFPQPAAVYAIHHQQLPHGFTNMAHVTQAHVQTGITAAPPPHPGAPHPPQVMLLHPPQSHGGPPQGAVPQSGVPALSASTPSPYPYIGHPQGEQPGQAPGFPGGADDRIREFSLAGGIWHGRAEGLQVGQDARVLGGE
Regarding B4, in assay [1] ([…]), the “target (unweighted spectral count in RNP capture)” value was 28. The “background (unweighted spectral count in control)” value in assay [1] stood at 1. Also, the “target (unweighted spectral count, OC43 Probe II capture)” value with HCoV-OC43 gRNA and sgRNA (36 hpi, type n_36_v) was determined as 10. Besides, the “target (unweighted spectral count)” value in the assay on HCoV-OC43 gRNA and sgRNA (12 hpi (type n_12_v)) stood at 4. Besides, the “target (unweighted spectral count)” value in the assay on HCoV-OC43 gRNA and sgRNA (24 hpi (type n_24_v)) came out at 6. In the assay on HCoV-OC43 gRNA and sgRNA, the “target (unweighted spectral count, OC43 Probe II)” value stood at 12 and the “background (unweighted spectral count, no-probe control)” value was determined as 1. Also, the “target (spectral count)” value with HCoV-OC43 gRNA and sgRNA (type s_36_m, HCoV-OC43-infected HCT-8 cells, 36 hpi, Probe II) amounted to 10. For the same molecule, the “background (spectral count)” value in the assay on HCoV-OC43 gRNA and sgRNA (type s_36_m, uninfected-probe control, 36 hpi, Probe II) came to 1. For the same molecule, in the assay on SARS-CoV-2 gRNA ([…]), the “target (unweighted spectral count of the protein in the RNP capture)” value came to 9.

B5: MBNL2 (protein, UniProt Q5VZF2 1-373, looked up)
Muscleblind-like protein 2: MALNVAPVRDTKWLTLEVCRQFQRGTCSRSDEECKFAHPPKSCQVENGRVIACFDSLKGRCSRENCKYLHPPTHLKTQLEINGRNNLIQQKTAAAMLAQQMQFMFPGTPLHPVPTFPVGPAIGTNTAISFAPYLAPVTPGVGLVPTEILPTTPVIVPGSPPVTVPGSTATQKLLRTDKLEVCREFQRGNCARGETDCRFAHPADSTMIDTSDNTVTVCMDYIKGRCMREKCKYFHPPAHLQAKIKAAQHQANQAAVAAQAAAAAATVMAFPPGALHPLPKRQALEKSNGTSAVFNPSVLHYQQALTSAQLQQHAAFIPTGSVLCMTPATSIDNSEIISRNGMECQESALRITKHCYCTYYPVSSSIELPQTAC
For the molecule B5, in assay [1] ([…]), the “target (unweighted spectral count in RNP capture)” value came out at 7. In assay [1], the “background (unweighted spectral count in control)” value was 1. In addition, the “target (unweighted spectral count of the protein in the RNP capture)” value in the assay with SARS-CoV-2 gRNA ([…]) is reported as 7.

B6: PPP1CB (protein, UniProt P62140 2-327, looked up)
Serine/threonine-protein …: ADGELNVDSLITRLLEVRGCRPGKIVQMTEAEVRGLCIKSREIFLSQPILLELEAPLKICGDIHGQYTDLLRLFEYGGFPPEANYLFLGDYVDRGKQSLETICLLLAYKIKYPENFFLLRGNHECASINRIYGFYDECKRRFNIKLWKTFTDCFNCLPIAAIVDEKIFCCHGGLSPDLQSMEQIRRIMRPTDVPDTGLLCDLLWSDPDKDVQGWGENDRGVSFTFGADVVSKFLNRHDLDLICRAHQVVEDGYEFFAKRQLVTLFSAPNYCGEFDNAGGMMSVDETLMCSFQILKPSEKKAKYQYGGLNSGRPVTPPRTANPPKKR
With B6, the “target (unweighted spectral count in RNP capture)” value in assay [1] ([…]) is recorded as 24. In addition, the “background (unweighted spectral count in control)” value in assay [1] came to 4. Also, the “target (unweighted spectral count of the protein in the RNP capture)” value in the assay on SARS-CoV-2 gRNA ([…]) stood at 17.

B7: HNRNPA1L2 (protein, UniProt Q32P51 1-320, looked up)
Heterogeneous nuclear …: MSKSASPKEPEQLRKLFIGGLSFETTDESLRSHFEQWGTLTDCVVMRDPNTKRSRGFGFVTYATVEEVDAAMNTTPHKVDGRVVEPKRAVSREDSQRPGAHLTVKKIFVGGIKEDTEEHHLRDYFEQYGKIEVIEIMTDRGSGKKRGFAFVTFDDHDSVDKIVIQKYHTVKGHNCEVRKALPKQEMASASSSQRGRRGSGNFGGGRGDGFGGNDNFGRGGNFSGRGGFGGSCGGGGYGGSGDGYNGFGNDGSNFGGGGSYNDFGNYNNQSSNFGPMKGGNFGGRSSGPYGGGGQYFAKPQNQGGYGVSSSSSSYGSGRRF
Regarding B7, in assay [1] ([…]), the “target (unweighted spectral count in RNP capture)” value was 8. In addition, in assay [1], the “background (unweighted spectral count in control)” value is recorded as 1. Moreover, the “target (unweighted spectral count of the protein in the RNP capture)” value with SARS-CoV-2 gRNA ([…]) is given as 6.

B8: PABPN1 (protein, UniProt Q86U42 2-306, looked up)
Polyadenylate-binding protein …: AAAAAAAAAAGAAGGRGSGPGRRRHLVPGAGGEAGEGAPGGAGDYGNGLESEELEPEELLLEPEPEPEPEEEPPRPRAPPGAPGPGPGSGAPGSQEEEEEPGLVEGDPGDGAIEDPELEAIKARVREMEEEAEKLKELQNEVEKQMNMSPPPGNAGPVIMSIEEKMEADARSIYVGNVDYGATAEELEAHFHGCGSVNRVTILCDKFSGHPKGFAYIEFSDKESVRTSLALDESLFRGRQIKVIPKRTNRPGISTTDRGFPRARYRARTTNYNSSRSRFYSGFNSRPRGRVYRGRARATSWYSPY
For the molecule B8, the “target (unweighted spectral count in RNP capture)” value in assay [1] ([…]) is recorded as 11. The “background (unweighted spectral count in control)” value in assay [1] was found to be 1. For the same molecule, the “target (unweighted spectral count, OC43 Probe II capture)” value with HCoV-OC43 gRNA and sgRNA (24 hpi, type n_24_v) is on record as 5. In addition, in the assay with HCoV-OC43 gRNA and sgRNA, the “target (unweighted spectral count, OC43 Probe II)” value came out at 8 and the “background (unweighted spectral count, no-probe control)” value is 2. In the assay with SARS-CoV-2 gRNA ([…]), the “target (unweighted spectral count of the protein in the RNP capture)” value was found to be 12.
